For the series, the target named is N protein NTR (IDR1-NTD-IDR2) (SARS-CoV-2, UniProt P0DTC9 1-248). In words: EMSA. Conditions: protein: recombinant; tags: none stated; label: 5'-32P for EMSA; unlabeled for NMR; hairpin (stem loop). (Mobility shift assays separate free from complexed probe on a gel.)

Consider GGGUGUGGCUGUCACUCGGCUGCAUGCUUAGUGCACUCACGCCC (structured_RNA) [5_SL4 (SL4 RNA)], for which the binding result is recorded as “binds”.

Source of the values: paper PMC9312987, “NMR Reveals Specific Tracts within the Intrinsically Disordered Regions of the SARS-CoV-2 Nucleocapsid Protein Involved in RNA Encountering”.
